# The supplement of paper PMC12042874
# ± gives the uncertainty stated by the source.
# Experiment: amyloid nucleation score (Sup35N fusion, yeast selection) (log enrichment); library NNK1; higher = more nucleation; inactive = no reads after selection
# In short: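 The nucleation score is the DiMSum log enrichment of output over input reads, centred on the mode score of non-aggregating sequences. Only sequences with 100 or more input reads were scored, using Illumina sequencing of input and output plasmid inserts. Psi-negative yeast expressing Sup35N fused to peptides of 20 random codons were induced 24 hours with 100 μM copper sulfate and grown 7 days at 30°C on medium lacking adenine and uracil.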
row,Substance,amyloid nucleation score
1,NTHSPSFGFAMIRSGDTEKF,inactive
2,NTHTAWNRIGRTWRQNWTWG,0.061 ± 0.47
3,NTKSSVSYYFFMGIIFFSEI,0.355 ± 0.32
4,NTLSISDSYVEYETWEVIPV,1.62 ± 0.5
5,NTQTFEAFSKSFMDLIVRRF,-0.735 ± 1.2
6,NTSDDYIDLRYNHKGEAFEG,inactive
7,NTTATLMGHTQPIYSIYSVF,1.11 ± 0.94
8,NVDFTSYMLDMM,0.042 ± 0.41
9,NVILKDLQVYPEKAVSINRY,1.05 ± 0.32
10,NVIVKDLVLDNTFCVARVQA,-0.639 ± 0.42
11,NVQVKWGQTRVTCWDYGGEH,0.467 ± 0.34
12,NVRRLIFIMLKLDAICYWSS,-0.695 ± 1.1
13,NVVSYFHMAFGWCFNLW,1.94 ± 0.26
14,NVVWAYSMAFMTSAFSVNYP,inactive
15,NVWNVFWLNN,inactive
16,NWELRRVTRKWRSGDTSLSD,-2.04 ± 2.4
17,NWHPISVGSFYIVGLMRHRR,4.03 ± 0.11
18,NWMCKHSVGP,0.665 ± 0.72
19,NYAARPHSRSLLGAYDCSWS,0.731 ± 0.47
20,NYHLGCCNISMF,7.856 ± 0.047
21,NYLGRVLFFYNWFDKQYRSK,5.878 ± 0.048
22,NYMSMWTV,0.324 ± 0.9
23,PACFSGCEVGFASDMCVLEL,0.947 ± 0.42
24,PAPLQIRNMSSNAKTR,inactive
25,PAVAGEWNARMGWEATRYKA,0.669 ± 0.56

row,Substance,amyloid nucleation score
1,PAYGTNIVAIYLWH,3.59 ± 0.093
2,PCAETLVRHIHAYLKWI,0.065 ± 1.2
3,PCMFYWTVLGRLRTKPPSGV,-0.153 ± 0.44
4,PCSKAFRAVNISEAKIDFGN,-0.416 ± 0.5
5,PCTFWAEVRINRWSYYARQR,-0.856 ± 2.4
6,PCWTNSLLKPPVGIR,-0.281 ± 1.1
7,PDWCLMVLLCGLVCIYVDLN,0.22 ± 1.1
8,PEGWYLTNCRAGRFSSR,-0.222 ± 0.39
9,PELYSVDHFNGYAPNYCRCR,-0.534 ± 0.43
10,PERVVYANATAYRLLVKDAL,0.247 ± 0.33
11,PFGVVGDVFQSTLC,0.371 ± 0.84
12,PFILFQWPTLHRDYVHAQVL,0.686 ± 1.1
13,PFQRGIYHWLYILGLVVELP,inactive
14,PFRGDGIGYISVGGWFVQDN,-1.51 ± 2.4
15,PFSAWYNNNTLTYSIDCINF,0.58 ± 0.19
16,PFSYLMDLTIYVGKSLQSNE,0.119 ± 0.35
17,PFVQRFCL,0.486 ± 0.49
18,PFVRVLTLGYAGVWNGRGKP,0.904 ± 0.57
19,PFVYLVYCGNGNVFAAKYLS,6.217 ± 0.059
20,PFWAGG,inactive
21,PGCIICRVMTEANSRCLVRA,0.141 ± 1.2
22,PGFYGPLIGFMWRCSARERC,0.673 ± 0.37
23,PGKICSNDQVNVSAY,-0.179 ± 0.49
24,PGKRHGFMLRDFAMPKLSYH,-0.918 ± 0.59
25,PGRFLGLNSMTALVWY,0.095 ± 0.37

row,Substance,amyloid nucleation score
1,PGRTLIVFFCVVVCQCEDNR,1.44 ± 0.5
2,PGVECACRVSNATNVDGLDL,-0.168 ± 0.5
3,PHVTGGSPCSKHSLRW,-0.716 ± 0.65
4,PICANWLMHTVMINSSSGRG,0.27 ± 0.32
5,PICCLLQLLGDSGWMCCSAW,6.538 ± 0.061
6,PIEHDEWLTVMVYCDGRLLA,-0.894 ± 2.4
7,PIHPRTLMG,0.117 ± 0.59
8,PIKHCRRRNTDRRKTGMSQV,-0.447 ± 0.62
9,PIYGFLWELRR,0.486 ± 0.51
10,PLARRVSAHILVRMNYRNFM,-0.048 ± 0.37
11,PLELPVVFIMSDFSFWRRAQ,0.555 ± 0.53
12,PLEMGSHIGRL,-1.54 ± 2.7
13,PLFCNNWSVLEFERRLGDMH,1.03 ± 0.24
14,PLFLVVTQMS,5.25 ± 0.073
15,PLHCSVGRIRSGLMCLKLTC,-0.17 ± 1.1
16,PLLFKGYNAHRPNLVLTTML,-0.143 ± 1.7
17,PLSWTNMKYKGSCVYFMVFF,-2.14 ± 2.4
18,PLVKGIHSNPRTYTTMYYSY,-1.93 ± 2.7
19,PLYSYADEVVDGKGSCERNC,0.946 ± 0.5
20,PMRACHCCFGCTKSLAHDSN,0.912 ± 0.53
21,PMSKV,inactive
22,PNAVNIIYDCAQLLFMRTMR,-0.188 ± 0.65
23,PNFMMIWWVSTLRHNFTGLC,2.19 ± 0.31
24,PNSYASVHSNHKDIREAMYL,0.021 ± 0.44
25,PPQLHRVEFLIVSGR,-0.859 ± 1.4

row,Substance,amyloid nucleation score
1,PQGLTSSSMGLTSANHSAA,0.637 ± 0.88
2,PQVKTFGVVFVGGMCE,0.216 ± 0.41
3,PREDRGLSWISGYYYYLVAG,-0.341 ± 0.47
4,PRSMRKNSYGLGSGVRDHVQ,-0.238 ± 0.56
5,PRVIELARLVRLRKTKVYML,-0.013 ± 0.24
6,PRVQRPPKVRTAELTTGPSQ,-0.423 ± 0.37
7,PRVSRRPWLKGFNNVSNQQI,0.193 ± 1.5
8,PSGTQCTAE,-0.047 ± 0.65
9,PSKPLGIIRLVSNQFPPSHK,0.123 ± 0.29
10,PSRWRYYGSYGDLILICSGS,-0.907 ± 0.79
11,PSSHWIAPNFVVN,inactive
12,PSTRRVGDWDFLTSSTGRTM,-0.403 ± 0.35
13,PTFFHNCVDTFRSS,-0.026 ± 0.47
14,PTLLALYGG,-0.414 ± 0.61
15,PVCFAFQFRATPNMQVHQPS,-0.108 ± 0.75
16,PVDNLFNFLSGSCAISNFQK,0.638 ± 0.58
17,PVDVGYIRIPP,0.093 ± 0.87
18,PVHVLYFTWMNQECCGHNYL,6.5 ± 0.07
19,PVLPDDLNARREYSGCIKYL,0.765 ± 0.55
20,PVLRTSWTCWA,-0.254 ± 0.6
21,PWCFTLFALAPP,-0.077 ± 1.7
22,PWCQVRHSSYRASWSSVVVN,-0.254 ± 0.48
23,PWDYVSLSI,-0.424 ± 0.73
24,PWFIYDSLGFNSRCRSHLIK,-0.069 ± 0.88
25,PWNLLGKIVTFV,1.09 ± 0.94

row,Substance,amyloid nucleation score
1,PWPVSFYFMVNIVWCGRVIL,1.06 ± 0.26
2,PYPYAISRYVFMVSNSDMFM,4.53 ± 0.054
3,PYVGHVGVKRDSNCK,0.206 ± 1.1
4,QANVDCNVHPVTRML,0.085 ± 0.46
5,QCDRILSDLYNCSGYNRNTK,-0.522 ± 0.74
6,QCRERLYPHPGLI,1.01 ± 0.37
7,QCRITDSFCSGA,-0.163 ± 0.45
8,QCRQAQLVLFGVSVWTGYVK,-0.083 ± 0.38
9,QDFNNEFFFSCRAAAKTTNA,-1.54 ± 1.7
10,QDIARPRYIPSNNRKKTREP,-1.35 ± 1.9
11,QDQSGPVLASCIWYLCSETN,7.403 ± 0.052
12,QEGRSFRGYTMVKYVFISRY,1.38 ± 0.5
13,QEINGKAQWSPIHSISTMAA,0.33 ± 0.51
14,QEPCGW,-0.172 ± 0.29
15,QESVGSNRRVVGDNASLRLL,-0.211 ± 0.86
16,QFKFINVDEAHT,0.297 ± 1.2
17,QFRGLDLCLRIRRLVAYTGI,0.285 ± 0.64
18,QGLSYFDCSDWLNYLFFKSY,0.126 ± 0.27
19,QGMQICHQKHGAWSGYNGRE,-0.379 ± 0.29
20,QGRTRSYY,-0.301 ± 0.82
21,QGSIHY,inactive
22,QIFVWAFPPSGVSGHVWSRD,6.497 ± 0.049
23,QIKVTGRRSSDEGSQGGWLL,3.82 ± 0.081
24,QLAAWSGFN,0.522 ± 0.28
25,QLELWVSLRCISWLQILRIL,1.06 ± 0.53

row,Substance,amyloid nucleation score
1,QLGQAICRSLYNVRSYMQGF,inactive
2,QLKGSSWYYENRVGRSGRGV,0.698 ± 0.49
3,QLLPISGKVWAVISSGLG,-0.029 ± 0.32
4,QLNFYIR,8.212 ± 0.061
5,QLRAYEFGWETREELNSRPY,-1.64 ± 2.4
6,QLRGWQYSKATREVDSREDR,0.646 ± 0.79
7,QLSLGHNFLCYVMSMRVREV,inactive
8,QLVTVADLLTKFPGILSWSG,inactive
9,QMREFCLNACSINPRFLWAS,1.51 ± 0.31
10,QMSKPARTLKSVRGPLDLRI,-0.389 ± 0.61
11,QNKVCNCDRVFTRFIESNSL,-0.254 ± 0.38
12,QNQSFLINPWQGSKLVDPTA,0.253 ± 0.53
13,QNVACSMH,0.093 ± 0.57
14,QPLLTQQK,0.086 ± 0.28
15,QPNNGVPQIMDTV,0.184 ± 0.43
16,QPSGLGAECYM,0.423 ± 1.4
17,QQSQC,inactive
18,QRMFFYNIIVWNVN,2.79 ± 0.14
19,QSLFFPFARFVTNILRYYKF,-0.531 ± 0.45
20,QSPISDCSGQSSCRMCQRYG,0.408 ± 0.2
21,QSSYVLCHFILE,-0.219 ± 1.2
22,QSVCSTCSRGPSHCAAGSV,0.17 ± 0.31
23,QSYTLYMMSLFKS,-0.34 ± 0.55
24,QTRWWEYHHNLFVLQITFGG,1.04 ± 0.27
25,QVARLLSHAMWLVGKTL,inactive

row,Substance,amyloid nucleation score
1,QVNRSVDFPSRFIKSY,-0.687 ± 1.4
2,QVNVN,0.19 ± 0.5
3,QVRRRVGILRLWFEKWVIGR,0.372 ± 0.77
4,QVSCSGFYRRDLSSRL,0.614 ± 0.56
5,QWQIDMIPRCLGDMNLIVLQ,inactive
6,QYFPF,-1.26 ± 1.2
7,QYLLFGYNYNAWERRDLALW,0.354 ± 0.22
8,QYNTLCFGMSTGYLYLNISS,2.83 ± 0.19
9,QYRHRGRQHLMGGNAQCPYV,0.477 ± 0.66
10,RACYTCVPVSGSRMSVRNLW,3.19 ± 0.13
11,RAKLFHWLNWR,0.282 ± 0.67
12,RALCLWTCKSYMFRN,-0.13 ± 1.1
13,RALLMTMKFNKMGSFNIESN,1.77 ± 0.2
14,RARCFHSSLVVRLLRQTAER,0.192 ± 1
15,RAVVW,0.695 ± 0.8
16,RCCSFRLYLFTEG,4.78 ± 0.068
17,RCDNAQLHIFVHLFRSVSDM,inactive
18,RCGRSVVDGLRCFRLRMAFG,-1.06 ± 1.2
19,RCHESARKVTSGMCCSGWC,4.12 ± 0.088
